Measured values published in paper PMC11728977, “Crystallographic, kinetic, and calorimetric investigation of PKA interactions with L-type calcium channels and Rad GTPase” (The Journal of Biological Chemistry, 2024).

Legend:
[1] = tested on: CC(C)C[C@H](NC(=O)[C@H](Cc1c[nH]cn1)NC(=O)[C@H](Cc1ccccc1)NC(=O)[C@H](CO)NC(=O)[C@H](C)NC(=O)[C@H](CCCNC(=N)N)NC(=O)[C@H](CCCNC(=N)N)NC(=O)CNC(=O)[C@H](CC(C)C)NC(=O)[C@H](CO)NC(=O)[C@H](C)NC(=O)[C@H](CO)NC(=O)[C@H](CCCNC(=N)N)NC(=O)[C@H](CC(C)C)NC(=O)[C@H](Cc1ccccc1)NC(=O)CNC(=O)[C@@H](N)CCCNC(=N)N)C(=O)O; experiment: purified protein, by the assay type; details: other: ADP-Glo; 3 nM PKAc, 1 mM ATP, 5 mM Mg2+, substrate 0-256 μM, room temperature 30 min; Michaelis-Menten fit; mean ± SD of n = 3 or 4; pH 7.4
Protocol: (§1) We used enzyme kinetics to investigate the activity of catalytic subunit of PKA (PKAc) toward the three target sites within the C terminus of CaV1.2. We performed discontinuous kinase assays using an ADP-GloMax Assay kit.
(§2) Kinase assays were conducted using an ADP-Glo Kinase Assay Kit (Promega). […] Therefore, we performed assays with excess ATP (1 mM) and Mg^2+ (5 mM) to saturate PKAc prior to substrate binding. Reagents were prepared as described in the kit, aliquoted, and frozen at −20 °C prior to use. Reactions were conducted in 384-well solid white polystyrene microplates (Corning). Peptide substrates and EFPreIQ were dissolved and/or diluted to 800 μM using 50 mM Hepes (pH 7.4), 150 mM KCl, 5 mM MgCl2, and 4 mM TCEP. […] For peptides lacking tryptophan, the amount of volume needed to achieve a concentration of 800 μM was calculated prior to dissolving. The peptides/substrate was 2-fold serially diluted using the same buffer to create 11 reactions per curve ranging from 0 to 256 μM. ATP was added to each reaction to achieve a final concentration of 1 mM. Reactions were initiated by the addition of thawed PKAc at a final concentration of 3 nM at a final well volume of 20 μl. After allowing reactions to occur at room temperature for 30 min, 3 × 5 ml from each reaction in a curve was taken and mixed with 5 ml ADP-Glo Reagent for a total of three technical replicates per biological replicate. After 40 min, 10 ml of kinase detection reagent was added to each technical replicate and, after waiting 60 min, relative luminescence unit were measured using a VICTOR X4 Multilabel Plate Reader (PerkinElmer).
(§3) The relative luminescence unit values were converted to specific activity values via interpolation of a standard curve that was created in accordance with the manufacturer’s protocol. The three technical replicates were averaged to calculate a biological replicate value and plotted against peptide concentration using GraphPad 9 (Prism) software (https://www.graphpad.com/updates/prism-900-release-notes). Technical replicate values resulting from experimental error were removed from the dataset and subsequent averaging. […] The Michaelis–Menten kinetics fitting function was used to generate a nonlinear regression to calculate both a Km constant and Vmax value for each biological replicate curve. These Km constant and Vmax values were averaged and SDs are reported. Figures displaying data points and Michaelis–Menten curves depict the average specific activity values calculated from all biological replicates in the three or four experiments (n = 3 or n = 4) per peptide (n = 4 for Ser1981 and Ser272 peptides, n = 3 for all others).

[2] = tested on: C[C@H](NC(=O)CN)C(=O)NCC(=O)N[C@@H](CCCNC(=N)N)C(=O)N[C@@H](CCC(=O)O)C(=O)N[C@@H](CCCNC(=N)N)C(=O)N[C@@H](CC(=O)O)C(=O)N[C@@H](CCCNC(=N)N)C(=O)N[C@@H](CCCNC(=N)N)C(=O)N[C@@H](CCCNC(=N)N)C(=O)NCC(=O)N[C@@H](CO)C(=O)N[C@H](C(=O)N1CCC[C@H]1C(=O)N[C@@H](Cc1c[nH]c2ccccc12)C(=O)O)[C@@H](C)O; experiment: purified protein, by the assay type; details: other: ADP-Glo; 3 nM PKAc, 1 mM ATP, 5 mM Mg2+, substrate 0-256 μM, room temperature 30 min; Michaelis-Menten fit; mean ± SD of n = 3 or 4; pH 7.4
Protocol: as §1, §2, §3

PKAc (catalytic subunit of PKA, PKAcα 16-351) (Mus musculus)
Km [1]: 8.1 ± 2.5 µM | kcat [1]: 15.5 ± 1.2 s⁻¹ | kcat/Km [1]: 1.9e+06 ± 600000 M⁻¹ s⁻¹ | Km [2]: 19.0 ± 6.7 µM | kcat [2]: 16.2 ± 0.8 s⁻¹ | kcat/Km [2]: 900000 ± 300000 M⁻¹ s⁻¹
